Test results taken from patent US20160024226A1.

Target: TNF-α (WEHI-13VAR cytotoxicity assay of Example 2)

In the case of cycloalkyne-modified adalimumab Fab′, the IC50 (read off the curve) [lower panel] is reported as 0.5 mg/L and the IC50 (read off the curve) [upper panel] is reported as 0.3 mg/L.
